Protein stability index data for 94 variants are collected here from the supplement of paper PMC10567573.

B1: KLHL12 (parent)
chain: REESLPNLLQYVRMPLLTPRYITD
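Note: lentivirally expressed fusions sorted by FACS into six bins by GFP to DsRed ratio, PSI derived from sequencing read proportions per bin multiplied by bin number.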

In this data set the parent is B1. Briefly: protein stability index of a GFP-peptide fusion (GPS, HEK-293T) (PSI 1-6); higher = more stable. As to conditions: c terminus: a fixed tail appended.
REESLPNLLQYVRMPLLTPRGITD: the protein stability index came to 3.4.
As for REESLPNLLQYVRMPLLTPRPITD, the protein stability index is 3.15.
Regarding REESLPNLLQYVRMPLLTPRHITD, the protein stability index was 3.08.
The figure for REESLPNLLQYVRMPLLTPREITD is 3.17; for REESLPNLLQYVRMPLLTPRMITD it is 2.97.
The figure for REESLPNLLQYVRMPLLTPRDITD is 3.69; for REESLPNLLQYVRMPLLTPRLITD it is 2.62; for REESLPNLLQYVRMPLLTPRCITD it is 2.95.
The figure for REESLPNLLQYVRMPLLTPRVITD is 2.72.
On to REESLPNLLQYVRMPLLTPRNITD, for which the protein stability index is 3.25.
The figure for REESLPNLLQYVRMPLLTPRSITD is 3.37; for REESLPNLLQYVRMPLLTPRTITD it is 3.26.
As to REESLPNLLQYVRMPLLTPRWITD, the protein stability index is 1.79.
Turning to REESLPNLLQYVRMPLLTPRKITD, the protein stability index came out at 3.93.
For REESLPNLLQYVRMPLLTPRRITD, the protein stability index worked out at 3.24.
As to REESLPNLLQYVRMPLLTPRFITD, the protein stability index came out at 2.22.
The figure for REESLPNLLQYVRMPLLTPRQITD is 3.85.
The figure for REESLPNLLQYVRMPLLTPRIITD is 2.84; for REESLPNLLQYVRMPLLTPRAITD it is 3.59.
Consider REESLPNLLQYVRMPLLTPRYQTD, for which the protein stability index stood at 2.54.
The figure for REESLPNLLQYVRMPLLTPRYVTD is 2.18; for REESLPNLLQYVRMPLLTPRYMTD it is 1.94; for REESLPNLLQYVRMPLLTPRYNTD it is 2.71.
The figure for REESLPNLLQYVRMPLLTPRYKTD is 3.71; for REESLPNLLQYVRMPLLTPRYYTD it is 2.34.
The figure for REESLPNLLQYVRMPLLTPRYDTD is 3.27.
Regarding REESLPNLLQYVRMPLLTPRYFTD, the protein stability index is 1.93.
REESLPNLLQYVRMPLLTPRYHTD: the protein stability index was 2.86.
The figure for REESLPNLLQYVRMPLLTPRYLTD is 2.4; for REESLPNLLQYVRMPLLTPRYCTD it is 2.55.
The figure for REESLPNLLQYVRMPLLTPRYSTD is 2.72; for REESLPNLLQYVRMPLLTPRYWTD it is 1.93; for REESLPNLLQYVRMPLLTPRYETD it is 3.22.
The figure for REESLPNLLQYVRMPLLTPRYPTD is 3.71.
REESLPNLLQYVRMPLLTPRYATD: the protein stability index amounted to 2.76.
With REESLPNLLQYVRMPLLTPRYTTD, the protein stability index was 3.39.
In the case of REESLPNLLQYVRMPLLTPRYGTD, the protein stability index was determined as 2.4.
For REESLPNLLQYVRMPLLTPRYRTD, the protein stability index is 3.84.
As for REESLPNLLQYVRMPLLTPMYITD, the protein stability index is 1.97.
The figure for REESLPNLLQYVRMPLLTPFYITD is 1.95; for REESLPNLLQYVRMPLLTPIYITD it is 2.68; for REESLPNLLQYVRMPLLTPCYITD it is 2.12.
The figure for REESLPNLLQYVRMPLLTPQYITD is 2.54.
The figure for REESLPNLLQYVRMPLLTPDYITD is 3.03.
REESLPNLLQYVRMPLLTPPYITD: the protein stability index stood at 2.21.
Consider REESLPNLLQYVRMPLLTPYYITD, for which the protein stability index stood at 1.67.
For the variant REESLPNLLQYVRMPLLTPLYITD, the protein stability index was 2.55.
The figure for REESLPNLLQYVRMPLLTPNYITD is 2.78; for REESLPNLLQYVRMPLLTPKYITD it is 3.48.
The figure for REESLPNLLQYVRMPLLTPSYITD is 2.72; for REESLPNLLQYVRMPLLTPAYITD it is 2.19; for REESLPNLLQYVRMPLLTPWYITD it is 1.22.
Take REESLPNLLQYVRMPLLTPHYITD: the protein stability index was 2.56.
As for REESLPNLLQYVRMPLLTPTYITD, the protein stability index is 2.15.
In the case of REESLPNLLQYVRMPLLTPVYITD, the protein stability index came to 1.92.
With REESLPNLLQYVRMPLLTPGYITD, the protein stability index was 3.29.
The figure for REESLPNLLQYVRMPLLTPEYITD is 2.7.
The figure for REESLPNLLQYVRMPLLSPRYITD is 2.27.
With REESLPNLLQYVRMPLLMPRYITD, the protein stability index turned out to be 1.81.
The figure for REESLPNLLQYVRMPLLRPRYITD is 2.67; for REESLPNLLQYVRMPLLLPRYITD it is 2.42.
The figure for REESLPNLLQYVRMPLLQPRYITD is 2.5; for REESLPNLLQYVRMPLLYPRYITD it is 1.95; for REESLPNLLQYVRMPLLNPRYITD it is 1.7.
As to REESLPNLLQYVRMPLLFPRYITD, the protein stability index was determined as 2.46.
The figure for REESLPNLLQYVRMPLLGPRYITD is 3.92; for REESLPNLLQYVRMPLLIPRYITD it is 2.17.
For the variant REESLPNLLQYVRMPLLVPRYITD, the protein stability index was 1.97.
In the case of REESLPNLLQYVRMPLLPPRYITD, the protein stability index is 2.29.
The figure for REESLPNLLQYVRMPLLHPRYITD is 2.52; for REESLPNLLQYVRMPLLKPRYITD it is 2.19.
REESLPNLLQYVRMPLLWPRYITD: the protein stability index is 1.55.
On to REESLPNLLQYVRMPLLTPRYITK, for which the protein stability index was found to be 2.64.
With REESLPNLLQYVRMPLLTPRYITH, the protein stability index was found to be 2.06.
The figure for REESLPNLLQYVRMPLLTPRYITC is 1.81; for REESLPNLLQYVRMPLLTPRYITG it is 2.28; for REESLPNLLQYVRMPLLTPRYITR it is 2.75.
Turning to REESLPNLLQYVRMPLLTPRYITY, the protein stability index was 2.22.
The figure for REESLPNLLQYVRMPLLTPRYITI is 3.11; for REESLPNLLQYVRMPLLTPRYITV it is 1.57; for REESLPNLLQYVRMPLLTPRYITP it is 2.04.
The figure for REESLPNLLQYVRMPLLTPRYITM is 1.6; for REESLPNLLQYVRMPLLTPRYITW it is 2.11; for REESLPNLLQYVRMPLLTPRYITL it is 1.71.
Take REESLPNLLQYVRMPLLTPRYITE: the protein stability index amounted to 2.26.
In the case of REESLPNLLQYVRMPLLTPRYITT, the protein stability index came out at 2.17.
Regarding REESLPNLLQYVRMPLLTPRYITS, the protein stability index amounted to 2.01.
The figure for REESLPNLLQYVRMPLLTPRYITF is 2.04; for REESLPNLLQYVRMPLLTPRYITN it is 2.35; for REESLPNLLQYVRMPLLTPRYITA it is 1.84.
Take REESLPNLLQYVRMPLLTPRYITQ: the protein stability index was 2.5.
The figure for REESLPNLLQYVRMPLLTPRYIRD is 3.83; for REESLPNLLQYVRMPLLTPRYIGD it is 2.48.
On to REESLPNLLQYVRMPLLTPRYIID, for which the protein stability index was found to be 2.12.
